The target of assay [1] is recombinant Fasciola hepatica helminth defence molecule-1 (FhHDM-1) (Fasciola hepatica). Kind of assay: AUC; sedimentation velocity, 0.1 mg/ml, 20°C, 10 mM Tris, 50 mM NaF, pH 7.3, 40,000 rpm; c(s) and c(M) distributions (SEDFIT).
Assay [2] shares this target. Kind of assay: AUC; sedimentation velocity, 0.1 mg/ml, 20°C, 10 mM sodium citrate, 50 mM NaF, pH 4.5, 40,000 rpm; c(s) and c(M) distributions (SEDFIT).

One substance from PMC3093369 can be followed below.

“And” between values parts separate entries of the source, which are not always exact repeats. Equal entries are not always repeated.

As usually defined, the stoichiometry N is a count of units in the complex or per binding partner. Consider “recombinant Fasciola hepatica helminth defence molecule-1 (FhHDM-1) (natural protein)”, for which the stoichiometry N in assay [1] is 3; in assay [2] it was 2 and 5.
